Experimental data published in publication PMC9371921, “Strand annealing and motor driven activities of SMARCAL1 and ZRANB3 are stimulated by RAD51 and the paralog complex” (Nucleic Acids Research, 2022).

Legend:
FLAG-SMARCAL1 = molecular target: T1, FLAG-SMARCAL1 (human, UniProt Q9NZC9 1-954); experiment: pull-down; MBP-RAD51 (bait) from bacterial soluble extract bound to amylose resin and washed; purified FLAG-SMARCAL1, FLAG-ZRANB3 or FLAG-BCDX2 (1 μg, prey) in 150 μl IP buffer (25 mM Tris-HCl pH 7.5, 100 mM NaCl, 3 mM EDTA, 0.5 mM DTT, BSA, 10% glycerol), 1 h at 4°C; eluted with maltose; Western blot with anti-MBP and anti-FLAG; settings: both partners purified
T1 construct: also called SMARCAL1-WT; SMARCAL1 wild type
T1 sequence (looked up): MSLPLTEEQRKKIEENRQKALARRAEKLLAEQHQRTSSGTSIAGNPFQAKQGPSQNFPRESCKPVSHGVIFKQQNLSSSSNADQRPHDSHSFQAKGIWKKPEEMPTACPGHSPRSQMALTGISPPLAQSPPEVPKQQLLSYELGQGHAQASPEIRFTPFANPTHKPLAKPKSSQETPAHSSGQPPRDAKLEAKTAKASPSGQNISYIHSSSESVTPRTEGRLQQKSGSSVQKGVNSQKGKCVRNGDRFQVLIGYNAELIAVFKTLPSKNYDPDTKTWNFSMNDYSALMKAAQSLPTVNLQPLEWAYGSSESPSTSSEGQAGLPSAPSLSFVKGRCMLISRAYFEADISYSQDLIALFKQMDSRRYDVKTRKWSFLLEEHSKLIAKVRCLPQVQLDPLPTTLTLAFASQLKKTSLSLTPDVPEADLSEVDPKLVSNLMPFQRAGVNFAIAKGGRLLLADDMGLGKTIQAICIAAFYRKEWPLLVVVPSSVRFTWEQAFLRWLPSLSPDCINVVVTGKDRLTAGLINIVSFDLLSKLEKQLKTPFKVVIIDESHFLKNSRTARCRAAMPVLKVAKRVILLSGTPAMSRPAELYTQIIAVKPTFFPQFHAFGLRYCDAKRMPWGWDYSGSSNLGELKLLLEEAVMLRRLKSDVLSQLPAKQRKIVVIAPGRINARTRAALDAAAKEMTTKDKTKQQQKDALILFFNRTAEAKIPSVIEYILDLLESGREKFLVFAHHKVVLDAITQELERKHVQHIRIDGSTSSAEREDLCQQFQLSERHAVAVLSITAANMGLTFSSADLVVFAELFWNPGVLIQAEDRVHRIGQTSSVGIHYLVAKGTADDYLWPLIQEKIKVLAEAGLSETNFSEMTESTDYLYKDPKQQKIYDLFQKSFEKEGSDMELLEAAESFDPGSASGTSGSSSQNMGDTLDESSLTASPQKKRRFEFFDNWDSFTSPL

FLAG-ZRANB3 = molecular target: T2, FLAG-ZRANB3 (human, UniProt Q5FWF4 1-1079); experiment: as above; settings: both partners purified
T2 construct: also called ZRANB3 WT
T2 sequence (looked up): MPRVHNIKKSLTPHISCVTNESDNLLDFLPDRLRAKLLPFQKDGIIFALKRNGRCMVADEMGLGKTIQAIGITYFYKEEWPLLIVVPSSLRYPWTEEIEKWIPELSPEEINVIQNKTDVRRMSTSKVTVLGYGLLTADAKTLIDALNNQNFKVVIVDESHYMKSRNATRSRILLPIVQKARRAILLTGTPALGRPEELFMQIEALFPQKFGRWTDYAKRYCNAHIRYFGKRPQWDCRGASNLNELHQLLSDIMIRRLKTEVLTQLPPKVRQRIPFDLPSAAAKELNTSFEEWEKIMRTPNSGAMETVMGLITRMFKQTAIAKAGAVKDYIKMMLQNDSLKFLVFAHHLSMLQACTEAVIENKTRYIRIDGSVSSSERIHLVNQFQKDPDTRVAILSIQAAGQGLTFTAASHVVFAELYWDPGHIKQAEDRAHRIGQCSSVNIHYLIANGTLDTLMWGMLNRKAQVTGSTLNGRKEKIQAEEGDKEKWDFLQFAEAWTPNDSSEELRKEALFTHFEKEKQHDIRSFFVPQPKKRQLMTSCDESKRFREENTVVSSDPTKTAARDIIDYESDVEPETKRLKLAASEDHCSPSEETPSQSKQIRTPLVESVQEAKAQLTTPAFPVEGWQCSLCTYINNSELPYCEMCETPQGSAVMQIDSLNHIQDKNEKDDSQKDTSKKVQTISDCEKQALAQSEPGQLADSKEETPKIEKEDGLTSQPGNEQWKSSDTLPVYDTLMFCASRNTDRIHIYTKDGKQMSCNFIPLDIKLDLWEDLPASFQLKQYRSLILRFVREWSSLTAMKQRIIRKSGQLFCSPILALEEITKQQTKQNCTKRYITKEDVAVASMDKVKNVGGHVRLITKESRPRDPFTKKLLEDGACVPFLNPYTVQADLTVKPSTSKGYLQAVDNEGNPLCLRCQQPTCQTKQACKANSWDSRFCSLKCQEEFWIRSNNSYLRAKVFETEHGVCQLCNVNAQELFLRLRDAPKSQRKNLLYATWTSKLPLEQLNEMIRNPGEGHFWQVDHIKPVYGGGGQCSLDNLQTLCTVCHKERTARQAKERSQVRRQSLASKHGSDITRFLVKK

B1: MBP-RAD51 (natural protein, human, UniProt Q06609 1-339, looked up)
chain: MAMQMQLEANADTSVEEESFGPQPISRLEQCGINANDVKKLEEAGFHTVEAVAYAPKKELINIKGISEAKADKILAEAAKLVPMGFTTATEFHQRRSEIIQITTGSKELDKLLQGGIETGSITEMFGEFRTGKTQICHTLAVTCQLPIDRGGGEGKAMYIDTEGTFRPERLLAVAERYGLSGSDVLDNVAYARAFNTDHQTQLLYQASAMMVESRYALLIVDSATALYRTDYSGRGELSARQMHLARFLRMLLRLADEFGVAVVITNQVVAQVDGAAMFAADPKKPIGGNIIAHASTTRLYLRKGRGETRICKIYDSPCLPEAEAMFAINADGVGDAKD
notes: In the pull-downs the MBP tag was kept; the RAD51 of the DNA annealing assays was the same construct with the MBP cut off by PreScission protease and purified on HiTrap Q; not shown: MBP, N-terminal, kept
FLAG-SMARCAL1
  binding result: binds
FLAG-ZRANB3
  binding result: binds
